Laboratory results as given in paper PMC7958597, “In Vivo Biodistribution and Efficacy Evaluation of NeoB, A Radiotracer Targeted to GRPR, in Mice Bearing Gastrointestinal Stromal Tumor” (Cancers, 2021).
Several values for one entry are separate records, joined by “and”; a condition that tells them apart may be missing. Identical values can stand only once. Like-named read-outs stand apart in the source and are kept apart here.

What was measured:
[1] = Biodistribution of [^177Lu]Lu-NeoB by organ sampling and gamma counting; assay type: in vivo, mice; conditions: male, mouse, iv, total radioactivity
Procedure: (§1) All procedures were performed in accordance with the institutional guidelines and approved by the animal care and use committee of Grenoble University (APAFIS#6544-2016082615349282 v8). The study was performed on 6-weeks old male SCID mice (Charles River). A total of 82 mice were used, 42 for the biodistribution sub-study and 40 for the therapy sub-study. Mice were subcutaneously inoculated into the left flank with GIST-882 (2 to 4 × 10^6) in a 1:1 PBS/Matrigel® (Corning, Corning, NY, USA) mixture.
(§2) Biodistribution of [^177Lu]Lu-NeoB was evaluated when the tumor volume reached ~200 mm^3. The biodistribution was evaluated at 7 time points (1 h, 4 h, 4 h + block, 24 h, 48 h, 96 h, and 168 h). The compound was injected intravenously (100 µL/200 pmol/~0.8 MBq per mice). Moreover, an excess of 40 nmol unlabeled NeoB was co-injected in the mice of the 4 h + block condition. At the selected time point, mice were euthanized by CO2 inhalation, and the main organs and fluids were sampled and weighed. The activity was determined using a gamma well counter (Wizard^2 PerkinElmer, Waltham, MA, USA), the results were corrected for background, decay and sample weight, and the data were expressed as a % ID/g (percentage of injected dose per gram of tissue).

[2] = test system: SCID mice bearing GIST-882 tumors (GRPR expressing); test: as above; assay type: in vivo
Procedure: as §1, §2

[3] = SPECT-CT quantification of tumor uptake; assay type: in vivo, mice; conditions: male, SCID, mouse, GIST-882 tumor, iv, total radioactivity, 37 MBq i.v., 24 h post injection, n = 3
Procedure: Dual single photon emission computed tomography and x-ray computed tomography (SPECT-CT) imaging were performed in a subset of 6 mice of the therapeutic efficacy sub-study (3 from 400 pmol group and 3 from 800 pmol group). Acquisitions were performed the day after [^177Lu]Lu-NeoB injection (24 h post injection). SPECT-CT acquisitions were performed using a dedicated camera (nanoscan SPECT/CT, Mediso, Budapest, Hungary). Animals were placed on a pathogen-free animal handling system (MulticellTM, Mediso, Budapest, Hungary) under gas anesthesia (isoflurane 1–2%). Whole body imaging was performed. SPECT duration was of approximately 35 min, and CT acquisition of 5 min (at 35 kvp). Acquisitions were reconstructed with Nucline software using Monte Carlo reconstruction and scatter and attenuation correction, corrected for decay and expressed as % injected dose per gram (% ID/g). Image analysis was performed using Vivoquant software (version 3.5, Invicro, Boston, MA, USA).

GIST-882 tumor = test: Therapeutic efficacy (tumor growth, survival without reaching limit tumor volume); assay type: in vivo, mice; conditions: for mice excluded due to tumor volume over the limit of 1500 mm^3: 100 days of follow-up, 5 out of 13 control mice reached the limit; for tumor volume in comparison to control group: 37 MBq i.v. once a week for 3 weeks, day 0-26
Procedure: as §1
(§3) Efficacy was evaluated on 40 mice when the tumor volume reached ~100 mm^3. Control mice were intravenously injected with saline (Control group, n = 13), whereas treated mice received either 400 pmol (400 pmol group, n = 13) or 800 pmol (800 pmol group, n = […]) of 37 MBq of [^177Lu]Lu-NeoB once a week for 3 weeks. Tumor size was recorded 3 times per week before and after therapy administration and 5 times per week during the 3 weeks of the therapy administration. When a tumor volume exceeding 1500 mm^3 the animal was removed from the study and euthanized by CO2 inhalation. Pancreas was then frozen, 10 µm-thick slices were stained using hemato-eosin saffron (HES) and subsequently analyzed by a histopathologist.

[4] = Tolerability in the efficacy sub-study (body weight, pancreas histology HES); assay type: in vivo, mice; conditions: 400 or 800 pmol, 37 MBq once a week for 3 weeks
Procedure: as §3

[5] = Stability of the radiolabeled preparation by radio-HPLC (RCP); assay type: physicochemical; conditions: 24 h after labeling; Symmetry C18, H2O/acetonitrile 0.1% TFA gradient
Procedure: ^177Lu^3+ in aqueous 0.04 M HCl solution was purchased from ITG (Garding, Germany). Chemicals for radiolabeling were of trace metal® grade. Radiochemical purity (RCP) of each radiolabeled solution was determined using a high performance liquid chromatography (HPLC) apparatus (Shimadzu, France) equipped with NaI (Tl) scintillation detectors (LabLogic, UK). The radiolabeling was performed as previously described (25). For the biodistribution sub study, 92 nmol of NeoB was radiolabeled with 370 MBq of ^177LuCl3 and the reaction was then incubated at 95 °C for 7 min. The concentration was then adjusted at 200 pmol/100 µL (0.8 MBq) and a sterilizing filtration was performed. A similar protocol was employed for the therapy sub-study, using 20 nmol of NeoB and 1850 MBq of Lu-177. The concentration was then adjusted at 400 pmol/100 µL (37 MBq). A second solution of 800 pmol per 100 µL (37 MBq) was obtained by the addition of unlabeled NeoB peptide. A 0.22 µm sterile filtration was then performed. Radiochemical purity (RCP) was determined immediately after labeling and at 24 h by radio-HPLC analysis using an analytical reverse-phase column (Symmetry C18, 5 μm, 150 × 4.6 mm). A gradient elution was performed using solvent A (H2O, 0.1% TFA) and solvent B (acetonitrile, 0.1% TFA) as mobile phase at a flow rate of 1 mL/min.

PC-3 bearing mice = conditions: cited from earlier work
Text: In this study, we evaluate for the first time the theragnostic potential of [^177Lu]Lu-NeoB for tumor treatment by performing biodistribution and therapeutic studies in mice bearing GIST. In accordance with above mentioned finding, injected mass ranging from 200 to 800 pmol were employed. […] Indeed, in PC-3 be ...

[6] = from time activity curve 1-168 h, 200 pmol i.v.

SMILES: CC(C)CC(CC(C)C)NC(=O)[C@H](Cc1cnc[nH]1)NC(=O)CNC(=O)[C@@H](NC(=O)[C@H](C)NC(=O)[C@H](Cc1c[nH]c2ccccc12)NC(=O)[C@H](CCC(N)=O)NC(=O)[C@@H](Cc1ccccc1)NC(=O)COCC(=O)Nc1ccc(CNC(=O)CN2CCN(CC(=O)O)CCN(CC(=O)O)CCN(CC(=O)O)CC2)cc1)C(C)C [[^177Lu]Lu-NeoB, metal not drawn]
- tissue uptake at 1 h ([1]; SCID, GIST-882 tumor, 200 pmol/mouse, 1 h pi, 200 pmol/~0.8 MBq i.v., mean ± SD, read-out: uptake in GIST-882 tumor): 21.6 ± 1.7 %ID/g
- tissue uptake at 4 h ([1]; SCID, GIST-882 tumor, 200 pmol/mouse, 4 h pi, 200 pmol/~0.8 MBq i.v., mean ± SD, read-out: uptake in GIST tumor): 19.1 ± 3.9 %ID/g
- tissue uptake at 24 h ([1]; SCID, GIST-882 tumor, 200 pmol/mouse, 24 h pi, 200 pmol i.v., mean ± SD): 13.4 ± 3.5 %ID/g
- tissue uptake at 48 h ([1]; SCID, GIST-882 tumor, 200 pmol/mouse, 48 h pi, 200 pmol i.v., mean ± SD): 10.5 ± 1.6 %ID/g
- tissue uptake at 96 h ([1]; SCID, GIST-882 tumor, 200 pmol/mouse, 96 h pi, 200 pmol i.v., mean ± SD): 5.9 ± 0.3 %ID/g
- tissue uptake at 168 h ([1]; SCID, GIST-882 tumor, 200 pmol/mouse, 168 h pi, 200 pmol i.v., mean ± SD): 2.5 ± 0.7 %ID/g
- tissue uptake at 4 h ([1]; SCID, GIST-882 tumor, 4 h pi, co-injected with excess of 40 nmol unlabeled NeoB, mean ± SD, read-out: uptake in GIST tumor, 4 h + block): 0.3 ± 0.1 %ID/g
- tissue uptake at 1 h ([1]; SCID, bladder, 200 pmol/mouse, 1 h pi, 200 pmol/~0.8 MBq i.v., mean ± SD, read-out: uptake in bladder): 20.6 ± 19.7 %ID/g
- tissue uptake at 4 h ([1]; SCID, large bowel content, 200 pmol/mouse, 4 h pi, 200 pmol/~0.8 MBq i.v., mean ± SD, read-out: uptake in large bowel content): 10 ± 3.5 %ID/g
- tissue uptake at 1 h ([1]; SCID, pancreas, 200 pmol/mouse, 1 h pi, 200 pmol/~0.8 MBq i.v., mean ± SD, read-out: uptake in pancreas): 19.8 ± 2.6 %ID/g
- tissue uptake at 4 h ([1]; SCID, pancreas, 200 pmol/mouse, 4 h pi, 200 pmol/~0.8 MBq i.v., mean ± SD, read-out: uptake in pancreas): 8.5 ± 2 %ID/g
- tissue uptake at 4 h ([1]; SCID, pancreas, 4 h pi, co-injected with excess of 40 nmol unlabeled NeoB, mean ± SD, read-out: uptake in pancreas, 4 h + block): 0.1 %ID/g
- tissue to tissue ratio ([1]; SCID, tumor and kidney, 200 pmol/mouse, all investigated time points 1-168 h): > 1
- tissue to tissue ratio at 96 h ([1]; SCID, tumor and kidney, 200 pmol/mouse, at 96 h, mean ± SD, read-out: tumor-to-kidney ratio (maximum value)): 112 ± 5
- tissue to tissue ratio at 48 h ([1]; SCID, tumor and liver, 200 pmol/mouse, at 48 h, mean ± SD, read-out: tumor-to-liver ratio (maximum value)): 54 ± 5
- tissue to tissue ratio at 168 h ([1]; SCID, tumor and pancreas, 200 pmol/mouse, at 168 h (1 week), mean ± SD, read-out: tumor-to-pancreas ratio (maximum value)): 309 ± 148
- excreta dose per gram or mL at 4 h ([1]; SCID, urine, 200 pmol/mouse, 4 h pi, 200 pmol/~0.8 MBq i.v., mean ± SD, read-out: uptake in urine): 216 ± 193 %ID/g
- excreta dose per gram or mL at 1 h ([1]; urine, 200 pmol/mouse, 1 h pi, 200 pmol/~0.8 MBq i.v., GIST-882 bearing SCID mice, gamma counter, mean ± SD, read-out: uptake in urine): 600 ± 155 %ID/g
- uptake in GIST tumor ([2]; 4 h pi, 200 pmol/~0.8 MBq i.v., mean ± SD): 19.1 ± 3.9 % ID/g
- decrease of uptake in GIST tumor by co-injection of unlabeled NeoB ([2]; 4 h pi, 40 nmol unlabeled NeoB): > 98%
- uptake in GIST tumor, 4 h + block ([2]; 4 h pi, co-injected with excess of 40 nmol unlabeled NeoB, mean ± SD): 0.3 ± 0.1 % ID/g
- uptake in adrenals, blood, GIST tumor, large and small bowel, pancreas and stomach when co-injected with excess unlabeled NeoB ([2]; 4 h pi, p < 0.05, multiple t tests, Holm-Sidak): significantly reduced
- tumor-to-pancreas ratio (maximum value) ([2]; at 168 h (1 week), mean ± SD): > 300
- half-life in pancreas [2, 6]: 2.41 h and 2.4 h
- half-life of retention in GIST tumor [2, 6]: 40.19 h and 40 h
- tissue uptake at 24 h ([3]; 400 pmol group): ~11 %ID/g
- tissue uptake at 24 h ([3]; 800 pmol group, p < 0.05 vs 400 pmol): ~7 %ID/g
- tumor regression (GIST-882 tumor; 400 pmol dose, 37 MBq once a week for 3 weeks): complete tumor regression
- mice excluded due to tumor volume over the limit of 1500 mm^3 (GIST-882 tumor; 400 pmol group): none
- residual tumor (GIST-882 tumor; 400 pmol group, from day 65): no residual tumor volume
- tumor volume in comparison to control group (GIST-882 tumor; 400 pmol, p = 0.0001): significantly reduced
- mice excluded due to tumor volume over the limit of 1500 mm^3 (GIST-882 tumor; 800 pmol group): none
- tumor volume in comparison to control group (GIST-882 tumor; 800 pmol, p = 0.0066): significantly reduced
- total body weight of treated animals [4]: No change
- off-target effect (inflammation, fibrosis, architecture alteration) on HES stained pancreatic sections ([4]; end of follow up): no off-target effect
- stability after labeling (radiochemical purity by radio-HPLC) [5]: remained stable
- pancreas half-life (PC-3 bearing mice; 200 pmol): 11 h
- tumor half-life in prostate tumors (PC-3 bearing mice; 200 pmol): 28 h
- tumor-to-pancreas ratio (PC-3 bearing mice; as early as 4 h after injection of 200 pmol): > 1
